Reference: patent US20260102474A1 (DEUTSCHES KREBSFORSCHUNGSZENTRUM STIFTUNG DES FFENTLICHEN …, published 2026)

How the values were obtained:
Assay in all cases: ELISA on coated his-tagged Fc receptor, anti-human-Fc HRP detection
[1] = molecular target: his-tagged FcγRI protein (R&D Systems) (UniProt P12314 16-288)
[2] = molecular target: his-tagged FcRIIIa protein (R&D Systems) (UniProt P08637 17-208)
[3] = molecular target: T1, his-tagged FcγRIIb protein (R&D Systems) (UniProt P31994 46-217)
T1 sequence (looked up): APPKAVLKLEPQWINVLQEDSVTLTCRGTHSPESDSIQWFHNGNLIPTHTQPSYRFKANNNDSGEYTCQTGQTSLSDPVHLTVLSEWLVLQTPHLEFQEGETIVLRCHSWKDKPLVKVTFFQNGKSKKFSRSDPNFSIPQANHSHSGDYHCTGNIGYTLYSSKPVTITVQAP

[4] = molecular target: T2, his-tagged FcγRIIa protein (R&D Systems) (UniProt P12318 36-218)
T2 sequence (looked up): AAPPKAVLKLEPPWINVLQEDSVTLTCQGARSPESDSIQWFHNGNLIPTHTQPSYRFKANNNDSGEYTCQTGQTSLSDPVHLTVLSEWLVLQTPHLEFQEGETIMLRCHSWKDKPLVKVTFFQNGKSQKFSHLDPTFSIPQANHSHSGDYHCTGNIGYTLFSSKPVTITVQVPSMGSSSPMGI

Measured: binding result

Sequence of his-tagged FcRIIIa protein (R&D Systems) (P08637 17-208 limits assumed): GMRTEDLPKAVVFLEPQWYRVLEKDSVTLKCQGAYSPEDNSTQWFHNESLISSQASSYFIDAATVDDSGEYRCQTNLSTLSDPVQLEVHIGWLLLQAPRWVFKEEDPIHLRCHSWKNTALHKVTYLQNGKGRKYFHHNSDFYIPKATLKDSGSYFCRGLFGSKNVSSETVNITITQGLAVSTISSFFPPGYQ
Sequence of his-tagged FcγRI protein (R&D Systems) (P12314 16-288 limits assumed): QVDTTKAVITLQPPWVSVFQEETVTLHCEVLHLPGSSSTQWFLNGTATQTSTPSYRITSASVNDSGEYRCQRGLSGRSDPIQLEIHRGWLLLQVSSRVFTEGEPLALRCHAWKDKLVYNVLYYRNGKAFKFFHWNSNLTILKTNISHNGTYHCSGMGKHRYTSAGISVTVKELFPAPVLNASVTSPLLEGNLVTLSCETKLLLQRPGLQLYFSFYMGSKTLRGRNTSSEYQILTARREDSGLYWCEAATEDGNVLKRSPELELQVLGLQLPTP

B1: ACE2-M1-FcKO (Fc fusion)
chain: STIEEQAKYFLDKFNHEAEDLFYQSSLASWNYNTNITEENVQNMNNAGDKWSAFLKEQSTYAQMYPLQEIQNLTVKLQLQALQQNGSSVLSEDKSKRLNTILNTMSTIYSTGKVCNPDNPQECLLLEPGLNEIMANSLDYNERLWAWESWRSEVGKQLRPLYEEYVVLKNEMARANHYEDYGDYWRGDYEVNGVDGYDYSRGQLIEDVEHTFEEIKPLYEHLHAYVRAKLMNAYPSYISPIGCLPAHLLGDMWGRFWTNLYSLTVPFGQKPNIDVTDAMVDQAWDAQRIFKEAEKFFVSVGLPNMTQGFWEYSMLTDPGNVQKAVCHPTAWDLGKGDFRILMCTKVTMDDFLTAHREMGRIQYDMAYAAQPFLLRNGANEGFHEAVGEIMSLSAATPKHLKSIGLLSPDFQEDNETEINFLLKQALTIVGTLPFTYMLEKWRWMVFKGEIPKDQWMKKWWEMKREIVGVVEPVPHDETYCDPASLFHVSNDYSFIRYYTRTLYQFQFQEALCQAAKHEGPLHKCDISNSTEAGQKLFNMLRLGKSEPWTLALENVVGAKNMNVRPLLNYFEPLFTWLKDQNKNSFVGWSTDWSPYADQSIKVRISLKSALGDKAYEWNDNEMYLFRSSVAYAMRQYFLKVKNQMILFGEEDVRVANLKPRISFNFFVTAPKNVSDIIPRTEVEKAIRMSRSRINDAFRLNDNSLEFLGIQPTLGPPNQPPVSSGGGGSGGGGSGGGGSEPKSSDKTHTCPPCPAPPVAGPSVFLFPPKPKDTLMISRTPEVTCVVVGVSHEDPEVKFNWYVDGVEVHNAKTKPREEQYNSTYRVVSVLTVLHQDWLNGKEYKCKVSNKQLPSPIEKTISKAKGQPGQPREPQVYTLPPSRDELTKNQVSLTCLVKGFYPSDIAVEWESNGQPENNYKTTPPVLDSDGSFFLYSKLTVDKSRWQQGNVFSCSVMHEALHNHYTQKSLSLSPGK
notes: also called M1 version
no binding: [1] | [2] | [3] | [4]
